According to the DeepSol protein solubility set:

Assay: soluble on expression in E. coli; label from the status in PepcDB or PDB records

Sequence | soluble on expression in E. coli
MESFRFDPAGNLLDNAPAPDGHQNDSLLGNLLSQYAGRHYRYDSRGNLVEKRVNGSLTRLEWDSHSRLSRLIAPDGQRTDYHYDPLGRRIAKISQGQATLYGWDGDVLAFETRDEEAVHYLFEPDSFVPLAQVHTDAIRGVKVPAWSQHHPYDPDKDPLRQPAPEPEAPKAVYYYHTDHLGTPQALTDEQGLLALEMDYQAWGQAREVIADAAGKAGIRNPFRFQGQYHDDESGLHYNRHRYYDPEIGRFISRDPIGLKGGYNLFAYAPNTIEWVDPFGLTKLRETDPKARSLSNVQTRCWYLREESKIGYQIDCTKPIKQQARQAARLRNEARIRARLLMADREKAIALHQSDPNLTFKELMALKENKKGLTGKDAYQDIVDSASKSRQSVNKALLEGVDCDKVLEGILEHHHHHH | soluble
MSLAPSTYYDAKTRPPSARAQRDAVLGPALRQLWKDNYCVYGAHKLWKTARRAGYDVGRDQVARLMRAAGIQGVRRGKRVRTTKPDPVAARHPDLVKRKFTATAPNQLWVTDLTFVPTWAGVAYVCFIVDAHSRMIVGWRVASHMRTSMVLDALEMARWSRGTTLQNLICHSDAGSQFTSIRYGERLAEIGGVPSIGTVGDSFDNALAETVNGYYKAELIYGPARSGPWKTVEDVELATLSWVYWHNTSRLHSYLGDLPPAEFEAAFYDASRSGQPLVEIQEGHHHHHH | soluble
MGHHHHHHSHMAPKKAKKRAGGANSNVFSMFEQTQIQEFKEAFTIMDQNRDGFIDKNDLRDTFAALGRVNVKNEEIDEMIKEAPGPINFTVFLTMFGEKLKGADPEETILNAFKVFDPEGKGVLKADYVREMLTTQAERFSKEEVDQMFAAFPPDVTGNLDYKNLVHIITHGEEKD | soluble
MNIELLQQLCEASAVSGDEQEVRDILINTLEPCVNEITFDGLGSFVARKGNKGPKVAVVGHMDEVGFMVTHIDESGFLRFTTIGGWWNQSMLNHRVTIRTHKGVKIPGVIGSVAPHALTEKQKQQPLSFDEMFIDIGANSREEVEKRGVEIGNFISPEANFACWGEDKVVGKALDNRIGCAMMAELLQTVNNPEITLYGVGSVEEEVGLRGAQTSAEHIKPDVVIVLDTAVAGDVPGIDNIKYPLKLGQGPGLMLFDKRYFPNQKLVAALKSCAAHNDLPLQFSTMKTGATDGGRYNVMGGGRPVVALCLPTRYLHANSGMISKADYEALLTLIRGFLTTLTAEKVNAFSQFRQVD | not soluble
GDNDAIYYPVGDVDIERGGPALEVGEEDVLVARSFNEEDYVLDTIAQYPNDPTLGKLTFMIDLKNQQKDQNVADFNGVGKSKLTMSLGYKDGNYPSESQVPIYTSQDVTAKYAVKLRLKGELLVSGDEWMIDYVYAQLASLFQPYPPANFPEVFMCKGGMKLGTFDSFRRTCTFDITYDRSDLSFSQLYFNLFINLAGQKRENRVRLRIDKESYFELYEQSEEM | soluble
MLSSINMVKIGLEVHVHLTSLKTKLFCSCPSDYTGKDPNTNVCPICLGLPGAIPVLNENAVKAAIMVALAINAEIANSLIMVRKHYFYPDMAKNYQISQYDGPGSIAISKGGYLKLREGKTVRIRRINIEEDPAKIIYPTGSMLTSKYTLLDYNRSGMGLLEIVTEPDMTEPKEAREFLEKLRSILEHLGVCNCDLEGAMRADANVSVEGGERVEIKNIGSPREVEEALKYEIARQKAAIAQGLPVKRETRHWDSERKVTVPTRTKETEEDYRYFPDPDLPPYPITQDLIEEIRKTLPELPDLRIKRLVTQYGISDYDATVLVMDKALADLFEETAKHYSNYKKLVNLLINDYLRWLNDKNLRPSQSKAGSQHLVELLKLLDDGVITIKIAKEILPEIVLEGKMPSSIIKERGLVAIKDEDYLINVIKEVINEEPDAAEKAKNDPKVINYLVGKVMKKTGKRADPQLTNELIKKILGIK | soluble
MAQFIDRRLNGKNKSAVNRQRFLKRHKEQIKESVADAVNRRSITNTETGEDVSIPHKDINEPIFHQGKGGVRERVHPGNDQFITGDKIERPKGGGQGSGSGEGNASPDGEGQDEFVFQISKDEYLDILFEDLELPNLEKNQIAKITEWKTHRAGFQTAGIPSNISVIRSLQQSLARRTAMTAGKKRLLKELEDELTRIKNIEPAQQLEENRLKKEIEELRKKIENVPFIDTFDLRFKNYEKRPVPSSQAVMFCLMDVSGSMDQATKDIAKRFYVLLYLFLTRTYENVDVVFIRHHTQAKEVDEHEFFYSQETGGTIVSSALKLMDEIVKERYPVGQWNIYAAQASDGDNWADDSPRCRDLLVNKLLPNCQYYSYIEITRRSHQTLWHEYEKLTDEFPNFAMKNIRSVEDIFPVFRELFQKETALEHHHHHH | soluble
